Patent US20240270846A1 (published 2024)

Each binder was assayed against T1, CD3 epsilon homodimer protein (UniProt P07766 23-126) (assay: SPR Biacore T200, CD3e homodimer on chip, antibody analyte;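 further: CD3 epsilon homodimer amine-coupled on CM4 sensor chip, antibodies injected as analyte at 25 °C in HBS-EP+, ratio ≥0.8 taken as binding retained versus unaltered parent antibody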).
T1 construct: Construct of the homodimer is not described; also called CD3 (CD3 epsilon)
T1 sequence (P07766 23-126): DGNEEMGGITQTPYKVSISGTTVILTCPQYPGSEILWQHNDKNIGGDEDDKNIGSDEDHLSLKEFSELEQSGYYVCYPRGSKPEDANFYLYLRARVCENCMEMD

| Binder | ratio of amounts bound (altered form/GLS3000) |
| --- | --- |
| GLS3000 V94A one-arm antibody (antibody, human IgG1, kappa, L234A L235A, N297A, name in Kabat numbering) light: DIVMTQSPLSLPVTPGEPASISCRSSQSLVHSNRNTYLHWYQQKPGQAPRLLIYKVSNRFSGVPDRFSGSGSGTDFTLKISRVEAEDVGVYYCGQGTQAPYTFGQGTKLEIKRTVAAPSVFIFPPSDEQLKSGTASVVCLLNNFYPREAKVQWKVDNALQSGNSQESVTEQDSKDSTYSLSSTLTLSKADYEKHKVYACEVTHQGLSSPVTKSFNRGEC heavy: QVQLVESGGGVVQPGRSLRLSCAASGFTFSNAWMHWVRQAPGKGLEWVAQIKAKSNNYATYYAESVKGRFTISRDDSKNSLYLQMNSLKTEDTAVYYCRYVHYGAYYGVDAWGQGTTVTVSSASTKGPSVFPLAPSSKSTSGGTAALGCLVKDYFPEPVTVSWNSGALTSGVHTFPAVLQSSGLYSLSSVVTVPSSSLGTQTYICNVNHKPSNTKVDKKVEPKSCDKTHTCPPCPAPEAAGGPSVFLFPPKPKDTLMISRTPEVTCVVVDVSHEDPEVKFNWYVDGVEVHNAKTKPREEQYASTYRVVSVLTVLHQDWLNGKEYKCKVSNKALPAPIEKTISKAKGQPREPQVYTLPPSRCELTKNQVSLSCAVKGFYPSDIAVEWESNGQPENNYKTTPPVLDSDGSFFLVSKLTVDKSRWQQGNVFSCSVMHEALHNHYTQKSLSLSPDYKDDDDK EPKSSDKTHTCPPCPAPELLGGPSVFLFPPKPKDTLMISRTPEVTCVVVDVSHEDPEVKFNWYVDGVEVHNAKTKPREEQYNSTYRVVSVLTVLHQDWLNGKEYKCKVSNKALPAPIEKTISKAKGQPREPQVCTLPPSRDELTKNQVSLWCLVKGFYPSDIAVEWESNGQPENNYKTTPPVLDSDGSFFLYSKLTVDKSRWQQGNVFSCSVMHEALHNRYTQKSLSLSP | 1.05 |
| GLS3000 F55I one-arm antibody (antibody, human IgG1, kappa, L234A L235A, N297A, name in Kabat numbering) light: DIVMTQSPLSLPVTPGEPASISCRSSQSLVHSNRNTYLHWYQQKPGQAPRLLIYKVSNRISGVPDRFSGSGSGTDFTLKISRVEAEDVGVYYCGQGTQVPYTFGQGTKLEIKRTVAAPSVFIFPPSDEQLKSGTASVVCLLNNFYPREAKVQWKVDNALQSGNSQESVTEQDSKDSTYSLSSTLTLSKADYEKHKVYACEVTHQGLSSPVTKSFNRGEC heavy: QVQLVESGGGVVQPGRSLRLSCAASGFTFSNAWMHWVRQAPGKGLEWVAQIKAKSNNYATYYAESVKGRFTISRDDSKNSLYLQMNSLKTEDTAVYYCRYVHYGAYYGVDAWGQGTTVTVSSASTKGPSVFPLAPSSKSTSGGTAALGCLVKDYFPEPVTVSWNSGALTSGVHTFPAVLQSSGLYSLSSVVTVPSSSLGTQTYICNVNHKPSNTKVDKKVEPKSCDKTHTCPPCPAPEAAGGPSVFLFPPKPKDTLMISRTPEVTCVVVDVSHEDPEVKFNWYVDGVEVHNAKTKPREEQYASTYRVVSVLTVLHQDWLNGKEYKCKVSNKALPAPIEKTISKAKGQPREPQVYTLPPSRCELTKNQVSLSCAVKGFYPSDIAVEWESNGQPENNYKTTPPVLDSDGSFFLVSKLTVDKSRWQQGNVFSCSVMHEALHNHYTQKSLSLSPDYKDDDDK EPKSSDKTHTCPPCPAPELLGGPSVFLFPPKPKDTLMISRTPEVTCVVVDVSHEDPEVKFNWYVDGVEVHNAKTKPREEQYNSTYRVVSVLTVLHQDWLNGKEYKCKVSNKALPAPIEKTISKAKGQPREPQVCTLPPSRDELTKNQVSLWCLVKGFYPSDIAVEWESNGQPENNYKTTPPVLDSDGSFFLYSKLTVDKSRWQQGNVFSCSVMHEALHNRYTQKSLSLSP | 0.82 |
| GLS3000 F55K one-arm antibody (antibody, human IgG1, kappa, L234A L235A, N297A, name in Kabat numbering) light: DIVMTQSPLSLPVTPGEPASISCRSSQSLVHSNRNTYLHWYQQKPGQAPRLLIYKVSNRKSGVPDRFSGSGSGTDFTLKISRVEAEDVGVYYCGQGTQVPYTFGQGTKLEIKRTVAAPSVFIFPPSDEQLKSGTASVVCLLNNFYPREAKVQWKVDNALQSGNSQESVTEQDSKDSTYSLSSTLTLSKADYEKHKVYACEVTHQGLSSPVTKSFNRGEC heavy: QVQLVESGGGVVQPGRSLRLSCAASGFTFSNAWMHWVRQAPGKGLEWVAQIKAKSNNYATYYAESVKGRFTISRDDSKNSLYLQMNSLKTEDTAVYYCRYVHYGAYYGVDAWGQGTTVTVSSASTKGPSVFPLAPSSKSTSGGTAALGCLVKDYFPEPVTVSWNSGALTSGVHTFPAVLQSSGLYSLSSVVTVPSSSLGTQTYICNVNHKPSNTKVDKKVEPKSCDKTHTCPPCPAPEAAGGPSVFLFPPKPKDTLMISRTPEVTCVVVDVSHEDPEVKFNWYVDGVEVHNAKTKPREEQYASTYRVVSVLTVLHQDWLNGKEYKCKVSNKALPAPIEKTISKAKGQPREPQVYTLPPSRCELTKNQVSLSCAVKGFYPSDIAVEWESNGQPENNYKTTPPVLDSDGSFFLVSKLTVDKSRWQQGNVFSCSVMHEALHNHYTQKSLSLSPDYKDDDDK EPKSSDKTHTCPPCPAPELLGGPSVFLFPPKPKDTLMISRTPEVTCVVVDVSHEDPEVKFNWYVDGVEVHNAKTKPREEQYNSTYRVVSVLTVLHQDWLNGKEYKCKVSNKALPAPIEKTISKAKGQPREPQVCTLPPSRDELTKNQVSLWCLVKGFYPSDIAVEWESNGQPENNYKTTPPVLDSDGSFFLYSKLTVDKSRWQQGNVFSCSVMHEALHNRYTQKSLSLSP | 1.33 |
| GLS3000 F55H one-arm antibody (antibody, human IgG1, kappa, L234A L235A, N297A, name in Kabat numbering) light: DIVMTQSPLSLPVTPGEPASISCRSSQSLVHSNRNTYLHWYQQKPGQAPRLLIYKVSNRHSGVPDRFSGSGSGTDFTLKISRVEAEDVGVYYCGQGTQVPYTFGQGTKLEIKRTVAAPSVFIFPPSDEQLKSGTASVVCLLNNFYPREAKVQWKVDNALQSGNSQESVTEQDSKDSTYSLSSTLTLSKADYEKHKVYACEVTHQGLSSPVTKSFNRGEC heavy: QVQLVESGGGVVQPGRSLRLSCAASGFTFSNAWMHWVRQAPGKGLEWVAQIKAKSNNYATYYAESVKGRFTISRDDSKNSLYLQMNSLKTEDTAVYYCRYVHYGAYYGVDAWGQGTTVTVSSASTKGPSVFPLAPSSKSTSGGTAALGCLVKDYFPEPVTVSWNSGALTSGVHTFPAVLQSSGLYSLSSVVTVPSSSLGTQTYICNVNHKPSNTKVDKKVEPKSCDKTHTCPPCPAPEAAGGPSVFLFPPKPKDTLMISRTPEVTCVVVDVSHEDPEVKFNWYVDGVEVHNAKTKPREEQYASTYRVVSVLTVLHQDWLNGKEYKCKVSNKALPAPIEKTISKAKGQPREPQVYTLPPSRCELTKNQVSLSCAVKGFYPSDIAVEWESNGQPENNYKTTPPVLDSDGSFFLVSKLTVDKSRWQQGNVFSCSVMHEALHNHYTQKSLSLSPDYKDDDDK EPKSSDKTHTCPPCPAPELLGGPSVFLFPPKPKDTLMISRTPEVTCVVVDVSHEDPEVKFNWYVDGVEVHNAKTKPREEQYNSTYRVVSVLTVLHQDWLNGKEYKCKVSNKALPAPIEKTISKAKGQPREPQVCTLPPSRDELTKNQVSLWCLVKGFYPSDIAVEWESNGQPENNYKTTPPVLDSDGSFFLYSKLTVDKSRWQQGNVFSCSVMHEALHNRYTQKSLSLSP | 0.94 |
| GLS3000 F55G one-arm antibody (antibody, human IgG1, kappa, L234A L235A, N297A, name in Kabat numbering) light: DIVMTQSPLSLPVTPGEPASISCRSSQSLVHSNRNTYLHWYQQKPGQAPRLLIYKVSNRGSGVPDRFSGSGSGTDFTLKISRVEAEDVGVYYCGQGTQVPYTFGQGTKLEIKRTVAAPSVFIFPPSDEQLKSGTASVVCLLNNFYPREAKVQWKVDNALQSGNSQESVTEQDSKDSTYSLSSTLTLSKADYEKHKVYACEVTHQGLSSPVTKSFNRGEC heavy: QVQLVESGGGVVQPGRSLRLSCAASGFTFSNAWMHWVRQAPGKGLEWVAQIKAKSNNYATYYAESVKGRFTISRDDSKNSLYLQMNSLKTEDTAVYYCRYVHYGAYYGVDAWGQGTTVTVSSASTKGPSVFPLAPSSKSTSGGTAALGCLVKDYFPEPVTVSWNSGALTSGVHTFPAVLQSSGLYSLSSVVTVPSSSLGTQTYICNVNHKPSNTKVDKKVEPKSCDKTHTCPPCPAPEAAGGPSVFLFPPKPKDTLMISRTPEVTCVVVDVSHEDPEVKFNWYVDGVEVHNAKTKPREEQYASTYRVVSVLTVLHQDWLNGKEYKCKVSNKALPAPIEKTISKAKGQPREPQVYTLPPSRCELTKNQVSLSCAVKGFYPSDIAVEWESNGQPENNYKTTPPVLDSDGSFFLVSKLTVDKSRWQQGNVFSCSVMHEALHNHYTQKSLSLSPDYKDDDDK EPKSSDKTHTCPPCPAPELLGGPSVFLFPPKPKDTLMISRTPEVTCVVVDVSHEDPEVKFNWYVDGVEVHNAKTKPREEQYNSTYRVVSVLTVLHQDWLNGKEYKCKVSNKALPAPIEKTISKAKGQPREPQVCTLPPSRDELTKNQVSLWCLVKGFYPSDIAVEWESNGQPENNYKTTPPVLDSDGSFFLYSKLTVDKSRWQQGNVFSCSVMHEALHNRYTQKSLSLSP | 1.31 |
| GLS3000 F55E one-arm antibody (antibody, human IgG1, kappa, L234A L235A, N297A, name in Kabat numbering) light: DIVMTQSPLSLPVTPGEPASISCRSSQSLVHSNRNTYLHWYQQKPGQAPRLLIYKVSNRESGVPDRFSGSGSGTDFTLKISRVEAEDVGVYYCGQGTQVPYTFGQGTKLEIKRTVAAPSVFIFPPSDEQLKSGTASVVCLLNNFYPREAKVQWKVDNALQSGNSQESVTEQDSKDSTYSLSSTLTLSKADYEKHKVYACEVTHQGLSSPVTKSFNRGEC heavy: QVQLVESGGGVVQPGRSLRLSCAASGFTFSNAWMHWVRQAPGKGLEWVAQIKAKSNNYATYYAESVKGRFTISRDDSKNSLYLQMNSLKTEDTAVYYCRYVHYGAYYGVDAWGQGTTVTVSSASTKGPSVFPLAPSSKSTSGGTAALGCLVKDYFPEPVTVSWNSGALTSGVHTFPAVLQSSGLYSLSSVVTVPSSSLGTQTYICNVNHKPSNTKVDKKVEPKSCDKTHTCPPCPAPEAAGGPSVFLFPPKPKDTLMISRTPEVTCVVVDVSHEDPEVKFNWYVDGVEVHNAKTKPREEQYASTYRVVSVLTVLHQDWLNGKEYKCKVSNKALPAPIEKTISKAKGQPREPQVYTLPPSRCELTKNQVSLSCAVKGFYPSDIAVEWESNGQPENNYKTTPPVLDSDGSFFLVSKLTVDKSRWQQGNVFSCSVMHEALHNHYTQKSLSLSPDYKDDDDK EPKSSDKTHTCPPCPAPELLGGPSVFLFPPKPKDTLMISRTPEVTCVVVDVSHEDPEVKFNWYVDGVEVHNAKTKPREEQYNSTYRVVSVLTVLHQDWLNGKEYKCKVSNKALPAPIEKTISKAKGQPREPQVCTLPPSRDELTKNQVSLWCLVKGFYPSDIAVEWESNGQPENNYKTTPPVLDSDGSFFLYSKLTVDKSRWQQGNVFSCSVMHEALHNRYTQKSLSLSP | 0.72 |
